Measurements reported in US20030135878.

Biological target: wheat thioredoxin h (WTRXh), 13.5-kDa protein encoded by the 384-bp wtrxh fragment (UniProt O64394)
Sequence (O64394 whole entry, the tested form may be a part): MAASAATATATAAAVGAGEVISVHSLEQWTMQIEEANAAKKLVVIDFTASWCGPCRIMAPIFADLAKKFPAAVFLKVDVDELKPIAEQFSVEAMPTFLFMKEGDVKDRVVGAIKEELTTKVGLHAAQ

In the case of barley NTR (NADP-thioredoxin reductase), the “reduction of DTNB [5,5'-dithiobis(2-nitrobenzoic acid)] via NTR and thioredoxin” value is reported as “confirmed the ability of barley NTR to reduce wheat thioredoxin h (data not shown)”.
“Arabidopsis thaliana NTR (NADP-thioredoxin reductase)” was tested, and the Relative reduction of albumin-fraction proteins (mBBr fluorescence/protein), Homozygous/Null Segregant, +NADPH/NTR (fold (Homozygous/Null Segregant)) was 3.91.
